Test results taken from article PMC8146883, “A New Thermophilic Ene-Reductase from the Filamentous Anoxygenic Phototrophic Bacterium Chloroflexus aggregans” (Microorganisms, 2021).

Target: CaOYE, ene-reductase (Old Yellow Enzyme homologue) from Chloroflexus aggregans (Chloroflexus aggregans DSM 9485) (UniProt B8G5D6)
Assay: crystal structure; N-terminally His6-tagged CaOYE at 20 mg/mL in 50 mM Tris-HCl pH 8.0; crystals from 100 mM HEPES pH 7.0, 1.1 M sodium malonate, 0.5% Jeffamine ED-2003, 293 K; space group C2221, 4 molecules per asymmetric unit; dimer seen in the crystal packing

CaOYE, ene-reductase (Old Yellow Enzyme homologue) from Chloroflexus aggregans, sequence (B8G5D6 whole entry): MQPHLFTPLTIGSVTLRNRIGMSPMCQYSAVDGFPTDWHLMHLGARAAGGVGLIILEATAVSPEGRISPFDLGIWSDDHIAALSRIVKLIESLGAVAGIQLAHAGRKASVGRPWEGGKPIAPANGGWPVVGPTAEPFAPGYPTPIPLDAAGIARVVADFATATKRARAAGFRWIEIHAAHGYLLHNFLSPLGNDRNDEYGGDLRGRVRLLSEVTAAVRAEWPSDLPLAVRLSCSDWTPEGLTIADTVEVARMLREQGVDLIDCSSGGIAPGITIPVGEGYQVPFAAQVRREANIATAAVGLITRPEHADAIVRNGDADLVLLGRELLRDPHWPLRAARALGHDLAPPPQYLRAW

stoichiometry N: 2
Substance: CaOYE, ene-reductase (Old Yellow Enzyme homologue) from Chloroflexus aggregans (from UniProt B8G5D6 1-354)
